18 sequences from the DeepSol protein solubility set can be followed below.

A short description of the data set: soluble on expression in E. coli; label from the status in PepcDB or PDB records.
For the sequence “TLFDKIWDAHVVTTVEDGPTQLYIDRLYCHEVTSPQAFAGLRERGIKVLRPEKVFCMPDHNTPTHDQDKPIEDPISKTQVDTLTKNAKDFGLTHFGMMHPKNGIIHVVGPERALTLPGMTIVCGDSHTSTHGAMGAIAFGIGTSEVEMVLASQCILQSRPKT”, the “soluble on expression in E. coli” value is “not soluble”.
Then “TLLPQVQVLSWDHYVASSPQIYEPSLMIVAQGSKLARLGPRTLEYGAGHYLVQALSVPFMCETFATREAPLLGVAVGIDRGVLGELVQSMGLAPDAEVQAQTPQSMTSAALDAPMRESVERLLHCLQDPLDAKVLGPARVREVLYTALRGPQAGVL”, with “not soluble”; and “TLTSTLASMMDALETALQPLKKYGFPVESVVLAFSLTLRLLPLMLNTVNEVLDARKARGVAFSLTALGTPVMIRSINRARSIADALMARGAGD”, with “not soluble”; and “TREFNDLCRPHMEALAILCGETVNLVIRVGTQARFLSSAESTGMLRVGDRQGQVLDAELTAGGRILLAELPRETLEQLYLRPVDLADDDREWGDRRLPADEFERFWRELSAARAVGFAVNVQQTEEGVAAFGVAIRNRARTAVGALTVAVPITRFRQHSQGPLVSQIKNAIRELEVDIADLEP”, with “not soluble”.
As for “TRINLTLVSELADQHLMAEYRQLPRVFGAVRKHVANGKRVRDFKISPTFILGAGHVTFFYDKLEFLRKRQIELIAECLKRGFNIKDTTVQDISDIPQEFRGDYIPHEASIAISQARLDEKIAQRPTWYKYYGKAIYA”, the entry is “soluble”; as for “TRNFEWIVGGNITRSRDKIKSLGGEEQIVLSYDNGVQMVNRVGESPYQFYGYQADGVYSTQAEADAANLSNRTGRRYNAGDVRFVDQNGDNRIDDKDRILLGSAAPSYFGGFYTQLKYKGFALSAEFSYSKDNIAYNAVRQQLEAVSTTNNQSIAAVNRWTVEGQKTDMPKATWKDPVGNSYFSSRWMEDASYLRMKNVTLSYTFSKTLWNFFRSGTIYVTGENLLTFTDYLGMDPEFSYSYAENMQGFDNAKLMQPKTVKMGVNLKF”, “not soluble”.
Consider “TSTKLNTTTSAAYLSTGIKALDSMLGSKGYQTGSQIIISGRSGTAKTLFATSFAQSAVRQGRKVLFISFEESPNDLIRHVKSINIDLMKYITKKKLHINSRRSVEMGLEDHIISIIELTEEKQFDVLILDPISALLDLGNTMEVKRLFIRFISYMKSLNKTLLFTELIPDYSKELTILGLSSLTETWIRLSNVESNGEFNRLIHIAKARGIKTSNQIKEFYVTDKGINIEAPYLGDNQMMFGSQKSA”, for which the “soluble on expression in E. coli” value was “not soluble”.
Then “TTLSCKVTSVEAITDTVYRVRIVPDAAFSFRAGQYLMVVMDERDKRPFSMASTPDEKGFIELHIGASEINLYAKAVMDRILKDHQIVVDIPHGEAWLRDDEERPMILIAGGTGFSYARSILLTALARNPNRDITIYWGGREEQHLYDLCELEALSLKHPGLQVVPVVEQPEAGWRGRTGTVLTAVLQDHGTLAEHDIYIAGRFEMAKIARDLFCSERNAREDRLFGDAFAFI”, with “soluble”; and “TVIYDKNEKQAGTLYGQKGTYVELDAISDDLENAVISTEDRSFYKNSGINYKRMLLAIVTLGYSGGGSTITQQLAKNAFLTQEQTVKRKAREFFLALELTKKYSKKEILTMYLNNAYFGNGVWGVEDASQKYFGTSASRLTLDEAATLAGMLKGPGIYNPLYSI”, with “not soluble”; and “VARCQVPDCEADISELKGYHKRHRVCLRCATASFVVLDGENKRYCQQCGKFHLLPDFDEGKRSCRRKLERHNNRRKRKPVDKGGVA”, with “soluble”.
Then “VAVNNISNLINSRIRLTGISSGLDTDAIIEQLMSVERAKVDKIKQEKQILEWKRDIYRDIINKLRSITDEYFNVLKPKTNFTSQSAFTSFKISSSNESVVTVTANASAASKVHSITVHSLASAAKIVGTSGLVDGIKGSNAVNTLSLQGKEINVTLDGVTKTIALEDYTSLSDLETKLESALAKAFGTGKIDVVTTGGSIEFKCLLNGSTLSISDTANNYISSLGFSNGQKNFITGNSDVNSDFSLYTDGSFKITVGNGTAQTINISDATSIDDLVAKIQQAIDSNSELSGKVHVSNDGSKLTFISVSGETVKLTSGDSNNVLDKLGFSDGATITATSSTVIDLSGNEKGKTFIININGVDKIIEIDKDYNDLDELASYIQNQLGGTVNVTKDASGSRLVFSTGGADRLIFKKGPEDGLEKLGFTANDNRSNRISLTTKLDSLSTIFKNDLNIADPDANVVFTINGQTIDVGKTYANATLSDVMNAINSSSAGVKITYDSLNDRFIMESKTMGATSEIELTDTDPANGLLKAMGLIGGTYTAGTDAEFDLDGVTGMKRSTNEFTIEGVTYSLKGVSSEPVKIDVKADIDAVVENIKNFVNSYNEMLAKINSVLTEERYRDYLPLTDDQKKAMSEDDIKLWEQKAKSGLLRSDSILENIVTNLRRALYDKVEGCSLSLYQIGITTGSYQDKGKLVIDEEKLRAALTDNYDAVVQLFTQGSQYTYSEALNDPNKRAVRYKEAGIAQRIYDILQDNIRITRNANGKKGILLEKAGIAGDLTEYDNLIVNEIKAKETLIDEMLVKIYKKEEYYYSKFAAMEKMLDAMNSQSMWLTQQFSNYY”, with “soluble”; and “VAVTCRVLKLARQPYYRWRAHPVTDAEIVEAYRANALFDAHKDDPEFGYRYLVEEARDAGEPMAERTAWRICSQQGLWSVFGKKRGKNGKPGPPVHDDLVERDFTASEPNALWLSDITEHRTGEGKLYLCAIKDVFSNRIVGYSIDSRMKSRLATAALSSAVARRGDVDGCILHSDRGSQFRSRKFVHALHHHGMVGSMGRVGAAGDNAAMESFFSLLQKNVLDRRRWDTREQLRIAIVIWIERTYHRRRRQLTLGRLTPIEFEAIMTTPASQAA”, with “soluble”; and “VDLPGNDFDSNDFDAVDLWGADGAEGWTADPIIGVGSAATPDTGPDLDNAHGQAETDTEQEIALFTVTNPPRTVSVSTLMDGRIDHVELSARVAWMSESQLASEILVIADLARQKAQSAQYAFILDRMSQQVDADEHRVALLRKTVGETWGLPSPEEAAAAEAEVFATRYSDDCPAPDDESDPW”, with “soluble”.
With “VDSKKRPGKDLDRIDRNILNELQKDGRISNVELSKRVGLSPTPCLERVRRLERQGFIQGYTALLNPHYLDASLLVFVEITLNRGAPDVFEQFNTAVQKLEEIQECHLVSGDFDYLLKTRVPDMSAYRKLLGETLLRLPGVNDTRTYVVMEEVKQSNRLVIKTR”, the “soluble on expression in E. coli” value is given as “soluble”.
As for “VEAHPSLTLFSQLRIEHEDMAIAEDDWAWLRHKGHLRLGAALDETSPFNVRLDDENYEGITADVATLVGQLLGMRIKVVSFDTHADAVAALAAGKIDLLGSHYSSAGDSSLVLSQPYARDRLAVFKRMGEKRNSPEDLAGLSVAVAREHVGELRQRFPRARFVVFGSHDEAVAAVAFGHTDLYLDDVLSAYHRINRSYYGYVRFERFADARLEGGYGFLLRRGDTNLLRVVNSAIGAINQDRLESIARRWVGSGSLPTGQRIALTPQESRWIARHPVVRLVINDDLAPLAFFNSDETFSGIASDLLDMISRRTGLHFQVTPRSGGFPEQIGVLARKEADLAIMSRSSKREEMLRFTRSFLSTSYVLVTRADDKGRAEIPGSLDGKRIAIPAGHVGMQQVRERYPQASMVEVGVALDAMNLVYEGRADAAVVPLVTARYYIVRLFRERLAIADLVPIGAATAHFAVRRGDAELQSILDKALLSISPDDLSDIVNRWRSPPGMSGQT”, the entry is “soluble”; as for “VELIGRSEWINQYRRRLQQLSETDIAVWLYGAPGTGRMTGARYLHQFGRNAQGEFVYRELTPDNAPQLNDFIALAQGGTLVLSHPEHLTREQQYHLVQLQSQEHRPFRLIGIGDTSLVELAASNHIIAELYYCFAMTQIACLPLT”, “soluble”.
As for “VFPSNATFGMGDRVRKKSGAAWQGQIVGWYCTNLTPEGYAVESEAHPGSVHIYPVAALERIN”, the entry is “soluble”; as for “VGDFTYSISANLSDFTSKMGNLNGTQFLGNQVKMEGSEYNEWYGYVSDGLFLTQEDVDKSPKLNNSVKVGDIKYKDISGPDGVPDGVISPEYDRVLLGGSLPHYMFGLTFNAAYKGWDFGLTLQGVGSQKSQISAAMIEGLRDNWLNFPTILDGNYWSPKNTDEQNATAKYPRLTRTNRDANFCMSDYWLYNGRYIRLKNLSVGYTLPKAWTTKACMNTVRLYVSGSDLFTISNAPKGWDPEVSTEGYPITTSLIFGVSINF”, “not soluble”.
